Entries after “also recorded” stand apart in the source; their conditions may differ.
Tests used:
[1] = target: T1, cell-membrane bound CD39 (CD39-expressing cells) (Homo sapiens, UniProt P49961); test: Inhibition of the enzymatic activity of cellular CD39, Cell Titer Glo; type: cell-based
T1 construct: host or cells: CD39-expressing cells
T1 sequence (P49961 1-510): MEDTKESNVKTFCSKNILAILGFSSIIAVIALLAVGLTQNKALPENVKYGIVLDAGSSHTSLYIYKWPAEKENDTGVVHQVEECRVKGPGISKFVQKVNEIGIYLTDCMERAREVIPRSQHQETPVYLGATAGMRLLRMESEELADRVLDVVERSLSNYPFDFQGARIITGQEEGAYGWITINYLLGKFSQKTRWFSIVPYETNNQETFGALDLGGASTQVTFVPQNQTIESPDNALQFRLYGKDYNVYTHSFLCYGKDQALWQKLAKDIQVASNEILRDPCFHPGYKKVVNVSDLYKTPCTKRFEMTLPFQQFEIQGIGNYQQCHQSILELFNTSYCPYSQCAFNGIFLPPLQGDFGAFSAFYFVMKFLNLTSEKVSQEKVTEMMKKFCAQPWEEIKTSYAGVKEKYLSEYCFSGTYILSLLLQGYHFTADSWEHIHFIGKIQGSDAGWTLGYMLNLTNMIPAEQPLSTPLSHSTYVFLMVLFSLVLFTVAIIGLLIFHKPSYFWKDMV
Description: The ability of an antibody to inhibit cells expressing CD39 protein can be tested by detecting ATP after incubating test antibody with cells (e.g., Ramos cells, cells transfected with CD39, etc.). See, e.g., Example 1. Cells can be incubated for 1 hour at 37° C. with test antibody. Cells are then incubated with 20 μM ATP for 1 additional hour at 37° C. Plates are centrifuged for 2 min at 400 g and cell supernatant are transferred in a luminescence microplate (white wells). CTG is added to the supernatant and emitted light is quantified after a 5 min incubation in the dark using an Enspire™ luminometer. Anti-CD39 antibody efficacy is determined by comparing emitted light in presence of antibody with ATP alone (maximal light emission) and ATP together with cells (minimal light emission).
The inhibition of the CD39 enzymatic activity in CD39-expressing cells by antibodies was evaluated using Cell Titer Glo™ (Promega, reference G7571) that allows assessment of ATP hydrolysis through use of a reagent that generates a luminescent signal proportional to the amount of ATP present. […] Plates were centrifuged for 2 min at 400 g and 50 μl cell supernatant are transferred in a luminescence microplate (white wells). 50 μl CellTiter-Glo® Reagent (CTG) was added to the supernatant and emitted light was quantified after a 5 min incubation in the dark using a Enspire™ luminometer. […]

human CD39 (CHO-huCD39) = target: T2, human CD39 (CHO-huCD39) (Homo sapiens, UniProt P49961); test: Inhibition of cellular CD39 ATPase activity in CHO-huCD39 cells; type: cell-based
T2 construct: expressed in transfected cells; host or cells: CHO cells
T2 sequence (P49961 1-510): T1 sequence (P49961 1-510)
Description: (§1) The inhibition of the CD39 enzymatic activity in CD39-expressing cells by antibodies was evaluated using Cell Titer Glo™ (Promega, reference G7571) that allows assessment of ATP hydrolysis through use of a reagent that generates a luminescent signal proportional to the amount of ATP present. The assay was thus designed to permit assessment of the inhibition of ATP hydrolyzed by CD39 in the cell culture supernatant. Briefly, 5×10^4 Ramos human lymphoma cells, 5×10^3 human CD39-, cynomolgus CD39—and mouse CD39-expressing CHO cells, were incubated 1 hour at 37° C. with anti-CD39 antibodies from 30 μg/ml to 5×10^−4 μg/ml. Cells were then incubated with 20 μM ATP for 1 additional hour at 37° C. Plates were centrifuged for 2 min at 400 g and 50 μl cell supernatant are transferred in a luminescence microplate (white wells). 50 μl CellTiter-Glo® Reagent (CTG) was added to the supernatant and emitted light was quantified after a 5 min incubation in the dark using a Enspire™ luminometer. Anti-CD39 antibody efficacy was determined by comparing emitted light in presence of antibody with ATP alone (maximal light emission) and ATP together with cells (minimal light emission).

[2] = test system: cynomolgus CD39 (CHO-cyCD39); test: Inhibition of cellular CD39 ATPase activity in CHO-cyCD39 cells; type: cell-based, cynomolgus (Macaca fascicularis)
Description: as §1

[3] = target: T3, CHO cells expressing human CD39 (CHO-huCD39) (Homo sapiens, UniProt P49961); test: Antibody titration on CHO-huCD39 cells by flow cytometry; type: binding
T3 construct: expressed in transfected cells; host or cells: CHO cells
T3 sequence (P49961 1-510): T1 sequence (P49961 1-510)
Description: Cells were incubated with various concentration of unlabeled anti-CD39 antibody from 30 μg/ml to 5×10^−4 μg/ml, for 30 minutes at 4° C. After washes, cells were incubated with Goat anti-mouse H+L labeled secondary antibody for 30 min at 4° C.

CD4 T cells = test: T cell proliferation assay in presence of added ATP, CD4 T cells; type: cell-based, human
Description: Peripheral blood from healthy donors was obtained from EFS, and mononuclear cells were isolated on a Ficoll gradient. Lymphocytes were further enriched on a 52% Percoll gradient by collection of the cell pellets and stained with a Cell Trace dye (Thermofisher) following the TDS provided by the manufacturer. […] Inhibition of T cell proliferation was achieved by addition of ATP (200 μM). T cell proliferation and ability of Abs to block immune suppressive effect of AMP were assessed by flow cytometry by quantifying the dye dilution in the proliferating T cell subset.
Percentage of proliferating T cells vs. anti-CD73 Ab concentration is plotted in graphs using GraphPad Prism software.

B1: I-394: anti-CD39 antibody, VH SEQ ID NO: 6, VL SEQ ID NO: 7; heavy/light chains SEQ ID NOS: 52 and 53 (antibody)
heavy: EVQLQQSGPELVKPGASVKMSCKASGYTFTDYNMHWVKQSHGRTLEWIGYIVPLNGGSTFNQKFKGRATLTVNTSSRTAYMELRSLTSEDSAAYYCARGGTRFAYWGQGTLVTVSAASTKGPSVFPLAPSSKSTSGGTAALGCLVKDYFPEPVTVSWNSGALTSGVHTFPAVLQSSGLYSLSSVVTVPSSSLGTQTYICNVNHKPSNTKVDKRVEPKSCDKTHTCPPCPAPEAEGAPSVFLFPPKPKDTLMISRTPEVTCVVVDVSHEDPEVKFNWYVDGVEVHNAKTKPREEQYNSTYRVVSVLTVLHQDWLNGKEYKCKVSNKALPSSIEKTISKAKGQPREPQVYTLPPSREEMTKNQVSLTCLVKGFYPSDIAVEWESNGQPENNYKTTPPVLDSDGSFFLYSKLTVDKSRWQQGNVFSCSVMHEALHNHYTQKSLSLSPGK
light: DIVLTQSPASLAVSLGQRATISCRASESVDNFGVSFMYWFQQKPGQPPNLLIYGASNQGSGVPARFRGSGSGTDFSLNIHPMEADDTAMYFCQQTKEVPYTFGGGTKLEIKRTVAAPSVFIFPPSDEQLKSGTASVVCLLNNFYPREAKVQWKVDNALQSGNSQESVTEQDSKDSTYSLSSTLTLSKADYEKHKVYACEVTHQGLSSPVTKSFNRGEC
modifications: Chimeric homo sapiens mus musculus
- inhibition of the enzymatic activity of cellular (cell-membrane bound) CD39 [1]: substantially fully blocks; also recorded: inhibit
- potency and maximal inhibition of cellular CD39 compared to BY40 ([1]; FIG. 2A): greater potency and maximal inhibition; also recorded: greater potency at all concentrations as well as greater maximal inhibition
- blocking CD39 enzymatic activity in cells expressing human CD39 (human CD39 (CHO-huCD39)): blocks; also recorded: highly potent
- blocking CD39 enzymatic activity in cells expressing cynomolgus CD39 [2]: blocks; also recorded: highly potent
- binding to cells expressing human CD39 [3]: bound; also recorded: binds
- potentiation of anti-CD73 antibodies in restoring CD4 T cell proliferation (CD4 T cells; added ATP 200 μM, anti-CD39 at 0.01, 0.1, 1 μg/ml): strongly potentiation
- increase in potency of anti-CD73 antibodies (CD4 T cells; anti-CD39 antibody at 0.01 μg/ml): approximately 1 log
- increase in potency of anti-CD73 antibodies (CD4 T cells; anti-CD39 antibody at 0.1 μg/ml): approximately 4 log
- enhancement of CD4 T cell proliferation, alone without anti-CD73 (CD4 T cells; concentrations of 0.1 μg/ml and 1 μg/ml, added ATP): remarkable enhancement
